Test results from paper PMC8689640 (ACS Synthetic Biology, 2021).

B1: wild-type Murine polyomavirus VP1 (natural protein, UniProt P03090 1-383, looked up)
chain: MAPKRKSGVSKCETKCTKACPRPAPVPKLLIKGGMEVLDLVTGPDSVTEIEAFLNPRMGQPPTPESLTEGGQYYGWSRGINLATSDTWIPRNNTLPTWSMAKSSFPCLNEDLTCDTLQMWEAVSVKTEVVGSGSLLDVHGFNKTHRFSKHKGNSTPVEGSQYHVFAGGGEPLDLQGLVTDARTKYKEEGVVTIKTITKKDMVNKDQVLNPISKAKLDKDGMYPVEIWHPDPAKNENTRYFGNYTGGTTAPPVLQFTNTLTTVLLDENGVGPLCKGEGLYLSCVDIMGWRVTRNYVSSLEKGFPRYFKITLRKRWVKNPYPMASLISSLFNNMLPQVQGQPMEGENTQVEEVRVYDGTEPVPGDPDMTRYVDRFGKTKTVFPGN

Key:
[1] = target: ΔVP1, Murine polyomavirus VP1 with the putative nuclear localization signal deleted (Murine polyomavirus) (UniProt P03090); assay: SEC-MALS
SEC-MALS = target: the molecule itself; assay: SEC-MALS

Molecule	stoichiometry N [1] [pentamers]	stoichiometry N (SEC-MALS) [pentamers]
ΔVP1, Murine polyomavirus VP1 with the putative nuclear localization signal deleted (from UniProt P03090 1-383) (natural protein)	72	
B1		~72
